Reference: US20210332428A1

Legend:
[1] = molecular target: human β2-adrenergic receptor (ADRB2) in nanodiscs, GRK2-phosphorylated, DNA barcoded (human) (UniProt P07550); test: polony co-localization, β-arr2 titration on isoproterenol-saturated phosphorylated ADRB2, one-site-specific fit
[2] = molecular target: human β2-adrenergic receptor (ADRB2) in nanodiscs, GRK2-phosphorylated, DNA barcoded (human) (UniProt P07550); test: polony co-localization at varied β-arr2 concentrations; reference is ADRB2 without GRK2-mediated phosphorylation

Kd [1]: 0.95 nM | fold increase of the average co-localization ratios after the phosphorylation [2]: 3 to 11 fold
Substance: β-arr2-TolA-HaloTag (β-arrestin-2, DNA barcoded) (from UniProt P19934 131-225)
